Legend:
[1] = molecular target: phosphorylated PD1 ITIM peptide; experiment: ELISA; peptides coated at 0.5 µg/ml on Nunc MaxiSorp plates; His-tagged SH2 protein from 10 µg/ml with 1:3 serial dilutions in PBS 0.5% BSA; detected with anti-His-tag antibody, absorbance at 450 nm
[2] = molecular target: phosphorylated PD1 ITSM peptide; experiment: as above

Substance	EC50 [1]	EC50 [2]
C-terminal SH2 domain of SHP1 (domain or fragment)	33.7 nM	1.69 nM
C-terminal SH2 domain of SHP2 (domain or fragment)	5.56 nM	1.85 nM
dual SH2 domains of SHP2 (domain or fragment)	1.69 nM	1.24 nM

Second part, the substance after the results:

EC50 [1]	EC50 [2]	Substance
12 nM	4.58 nM	N-terminal SH2 domain of SHP2 (domain or fragment)
21.4 nM	15.3 nM	dual SH2 domains of SHP1 (domain or fragment)

Reference: article PMC10272835, “Exploration of T cell immune responses by expression of a dominant-negative SHP1 and SHP2” (Frontiers in Immunology, 2023)
